The values that follow come from patent US20250236667A1, “ANTIBODIES TO MUTANT CALRETICULIN AND USES THEREOF” (CENTRAL ADELAIDE LOCAL HEALTH NETWORK INC, priority 2021, published 2025).

The test system of assay [1] is JAK2 V617F SET2 cells. The assay is described as follows: Cell proliferation, trypan blue exclusion. The assay is classed as cell-based, human. Conditions: 2, 10 or 20 μg/mL. As for the experimental part: (§1) A. Cytokine dependent TF-1 TpoR cells with an overexpression of WT CALR cultured in the absence of TPO, 10 ng/ml hTPO and 10 or 20 μg/mL 4D7 anti-mutant CALR antibody or 20 μg/mL control IgG antibody for 5 days and the number of trypan blue negative cells were counted every 24 hours (n=3). B. Cytokine dependent TF-1 CALR^del52 cells, lacking TpoR were cultured in the presence of 2 ng/mL GM-CSF and 10 or 20 μg/mL 4D7 or 20 μg/mL control IgG antibody (n=3). C. Cytokine dependent TF-1 CALR^del61 cells, lacking TpoR were cultured in the presence of 2 ng/ml GM-CSF and 10 or 20 μg/mL 4D7 or 20 μg/mL control IgG antibody (n=3). D. MARIMO cells from which the CALR^del61 mutation was originally amplified were cultured in the presence of 2, 10 or 20 μg/mL 4D7 or 20 μg/mL control IgG antibody (n=3). E. Cytokine independent SET2 cells which harbour the pathogenic JAK2^V617F mutation were cultured in the presence of 2, 10 or 20 μg/mL 4D7 or 20 μg/mL control IgG antibody (n=3). F. Cytokine independent TF-1 PTPN11^E76K cells were cultured in the presence of 10 or 20 μg/mL 4D7 or 20 μg/mL control IgG antibody (n=3).
(§2) In brief, cells were seeded at 5×10^4/mL in standard growth media, with any necessary cytokines, and the addition of 20 μg/mL IgG or 2, 10 or 20 μg/mL 4D7. Cells were seeded in triplicate and each well was counted in triplicate every 24 hours for 5 days using trypan blue exclusion.

Assay [2] has as its system TF-1 CALR^del61 cells, lacking TpoR. The assay is described as follows: Cell proliferation, trypan blue exclusion. In kind it is cell-based, human. Particulars: 2 ng/ml GM-CSF; 10 or 20 μg/mL. The procedure:
as §1, §2

Assay [3] has as its system MARIMO cells. As to the kind of experiment: Cell proliferation, trypan blue exclusion. In kind it is cell-based, human. Particulars: 2, 10 or 20 μg/mL. The procedure: as §1, §2
The test system of assay [4] is TF-1 cells with overexpression of wild type CALR. The assay is described as follows: Cell proliferation, trypan blue exclusion. In kind it is cell-based, human. Conditions: 10 or 20 μg/mL; 10 ng/ml hTPO. The procedure:
as §1, §2

Assay [5] deals with TF-1 expressing the PTPN11 E76K mutation. As to the kind of experiment: Cell proliferation, trypan blue exclusion. In kind it is cell-based, human. Conditions: 10 or 20 μg/mL. As for the experimental part: as §1, §2
Assay [6] concerns TF-1 CALR^del52 cells, lacking TpoR. As to the kind of experiment: Cell proliferation, trypan blue exclusion. Conditions: 2 ng/mL GM-CSF; 10 or 20 μg/mL. In kind it is cell-based, human. As for the experimental part: as §1, §2
The subject of assay [7] is TF-1 TpoR CALR^del61 cells in NSG mice. As to the kind of experiment: Chloroma xenograft model (subcutaneous injection). The assay is classed as in vivo. As for the experimental part:
All procedures were approved by the South Australian Health and Medical Research Animal Ethics Committee (Protocol SAM21-018). Bone marrow engraftment model: 4-6 week old NSG mice were x-ray irradiated with 150 cGy and 5×10^5 cells (TF-1-TpoR CALR^del61) or 5×10^4 cells (100 nM ruxolitinib resistant TF-1 TpoR CALR^del61) were intravenously injected into mice. […] Tail vein bleeds were taken at 3 weeks and analysed via flow cytometry to determine human leukaemia content in the peripheral blood. Leukemic cells were PI-, mCD45.1, hCD33+, zsGreen+. Mice were monitored daily and euthanized once clinical symptoms were observed. At the time of euthanasia, cardiac puncture was performed to obtain both peripheral blood and serum for analysis. Additionally, bone marrow from both femurs, spine and spleens were analysed for leukemic content as detailed above. Chloroma model: 4-6 week old NSG mice were anaesthetised by isoflurane inhalation and shaved on the left back/flank and 1×10^7 cells were injected into the mice. Cells were pre-treated with 20 μg/mL IgG or 4D7 for 1 hour prior to injection. […] Tumour progression was assessed through caliper measurements every 2 days. Mice were euthanised once tumours began to impede movement, show signs of ulceration or if any measurement of the tumour exceeded 30 mm (length, width or depth).

The test system of assay [8] is TF-1 TpoR CALR^del61 cells. As to the kind of experiment: Cell proliferation, trypan blue exclusion. The assay is classed as cell-based, human. Conditions: over 5 days at 2, 10 and 20 μg/mL. As for the experimental part: […] Cells were seeded in triplicate and each well was counted in triplicate every 24 hours for 5 days using trypan blue exclusion.
Assay [9] concerns primary CD34+ cells from patients with CALR mutant myelofibrosis. The assay is described as follows: TPO-independent megakaryocyte differentiation in liquid culture. In kind it is cell-based, human. From the text: (§3) Patient samples were collected with informed consent from the South Australian Cancer Research Biobank (SACRB: Adelaide, Australia). Primary CD34+ stem/progenitor cells from peripheral blood samples from patients with JAK2^V617F or CALR mutant myelofibrosis were purified by flow cytometry using CD34-APC antibody, anti-human CD45RA Brilliant Violet 605, anti-CD90 FITC, anti-human CD123-PE, anti-human CD38 PE-Cy7, or with CD34-APC antibody, anti-human CD3 FITC, anti-human CD19-PE (clone H1B19) and anti-human CD14 PE-Cy7.
(§4) For megakaryocyte differentiation assays, CD34+ cells derived from cord blood or from patient peripheral blood mononuclear fractions were plated in Megacult (MegaCult™-C Collagen and Medium with Lipids) with added IL-3 and IL-6 (10 ng/ml) in the presence or absence of 50 ng/mL TPO. Cells were plated at an initial density of 1800 cells/well and cultured for 12 days at 37° C. and 5% CO2. Primary PMF CD34+ cells were cultured in StemCell Pro supplemented with human recombinant SCF (25 ng/mL), IL-6 and IL-9 (10 ng/ml) to allow differentiation into megakaryocytes. CD34+cord blood cells were cultured in 50 ng/mL SCF, 50 ng/ml TPO, 20 ng/ml IL-6 and 20 ng/ml IL-9. Both IgG and 4D7 were added at 20 μg/mL. All cytokines are from Preprotech. Culture media was replenished every 3 days and cells were assessed for megakaryocyte differentiation on day 12 using anti-human CD41/61 PE-Cy7 (Clone A2A9/6) and CountBright beads (Thermo Fisher) to enumerate cell numbers. CD34+obtained from UCB were plated in MethoCult containing cytokines (H4434). Cells were seeded at approximately 100 cells per well and were cultured in the presence of 20 μg/mL 4D7 or control IgG antibody and scored for colony and blast forming units at 12-14 days.

The test system of assay [10] is primary CD34+ cells from JAK2 V617F myelofibrosis samples. The assay is described as above. In kind it is cell-based, human. Conditions: 3 out of 3 JAK2 V617F myelofibrosis samples.
From the text: as §3, §4

B1: 4D7: rat monoclonal IgG2a antibody against the mutant CALR neoepitope; VH SEQ ID NO: 5, VL SEQ ID NO: 7 (antibody, listed as Rattus rattus, V domains shown)
VH: QVQLQQSGAELAKPGSSVKISCKASGYTFTNYDMSWIKQRPGQALEWIGAINPGNGVTDYNEKFRGKATLTVDKSSSTAFMQLSSLTPEDTAVYHCAREYRDNYGYFDYWGQGVMVTVSS
VL: DIVLTQTPVSLSVTLGDQASISCRSSQSLEYSDGYTYLDWFLQKPGQSPQLLIYEVSSRFSGVPDRFIGRGSGTDFTLKISRVEPEDLGVYYCFQATHDPFTFGSGTKLEIK
Turning to B1, the inhibition of proliferation entry in [1] was “no inhibition”; in [3], “did not show inhibition”; in assay [4], “No inhibition”; in [5], “no inhibition”. Moreover, the effect on proliferation result in assay [2] and in assay [6] was “unaffected” throughout. In assay [7] (4D7 vs IgG, P=0.02), the “survival, hazard ratio” value worked out at 0.19. Further, the mean tumour volume in assay [7] (21 days post-engraftment, 12.5 mg/kg twice weekly, P=0.04) is 353 mm^3. Also, the TPO-independent cell growth entry in assay [8] is on record as “blockade of TPO-independent cell growth”. Besides, the “mean decrease of CD41+ cells across CALR mutant samples” value in assay [9] (20 μg/mL, day 12, normalised to IgG) came out at 55%. Besides, the “inhibition of CD41+ megakaryocytes compared to IgG control” value in assay [9] (additional samples in 2 independent patients (Graz), including type 2 CALR (5 base pair insertion)) is “evidence of inhibition”. In addition, the “inhibition of TPO-independent growth of CD41+CD61+ megakaryocyte progenitors” value in assay [9] (four out of 5 mutant CALR MF patient samples, 20 μg/mL, 12 days, vs IgG) is “at least 50%”. The “inhibition of CD41+CD61+ megakaryocyte progenitors” value in [9] (patient sample with a 34 base pair deletion) is reported as “weaker inhibition”; in [10], “No significant inhibition”.
